{
  "source": "patent US20150191542A1",
  "about": "(INNATE PHARMA S A, published 2015)",
  "key": {"[1]": {"molecular_target": "T1, MICA*004 expressed on C1R transfectant cells (human, UniProt Q29983 24-297, Glycosylated on cells; the letters do not carry this.)", "T1 construct": "also called C1R-MICA*004; C1R-MICA*04", "T1 chain": "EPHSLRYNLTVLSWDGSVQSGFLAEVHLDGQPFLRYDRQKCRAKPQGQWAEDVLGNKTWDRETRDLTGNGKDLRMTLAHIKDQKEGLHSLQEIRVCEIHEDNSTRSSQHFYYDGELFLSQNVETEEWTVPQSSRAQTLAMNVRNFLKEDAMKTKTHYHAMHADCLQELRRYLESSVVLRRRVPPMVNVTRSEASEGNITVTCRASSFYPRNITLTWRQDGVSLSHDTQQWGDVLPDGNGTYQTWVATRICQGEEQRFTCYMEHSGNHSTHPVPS", "test": "flow cytometry on C1R-MICA*004 cells, 3-parameter logistic fit", "protocol": "(§1) The binding of antibodies obtained from the first and second immunization series (including 9C10, 20C6 and 16A8) were tested for binding to MICA-expressing CR1 transfectant cells C1R-MICA*001, C1R-MICA*004, C1R-MICA*007 and C1R-MICA*008 (Pr. A. Steinle, Eberhard-Karls University Tuebingen, Germany) described in Salih et al. (2003) Blood 102(4): […]. Binding was analyzed by flow cytometry.\n(§2) Cells were harvested and stained in PBS 1×/BSA 0,2%/EDTA 2 mM buffer during 30 minutes at 4° C. using a dose-range of the anti-MICA mAbs. After two washes in staining buffer, cells were stained for 30 min at 4° C. with goat anti-mouse (H+L)-PE polyclonal antibodies (1/200). After two washes, stainings were acquired on a BD FACS Canto II and analyzed using the FlowJo software.\n(§3) Antibodies 9C10, 20C6 and 16A8 bound to each of the C1R-MICA*001, C1R-MICA*004, C1R-MICA*007 and C1R-MICA*008 cells (see FIGS. 3A, 3B and 3C for antibodies 9C10, 20C6 and 16A8 respectively). […] EC50 values are shown in Table C in μg/ml (calculated using a 3-parameter logistic fit)."}, "[2]": {"molecular_target": "T2, MICA*001 extracellular domain recombinant protein (full extracellular domain with a BirA or a Poly-His Tag) (human, UniProt Q29983 24-297)", "T2 construct": "it may be the same as MICA*001-His; also called MICA extracellular domain recombinant protein; not shown: BirA or poly-His tag", "T2 sequence": "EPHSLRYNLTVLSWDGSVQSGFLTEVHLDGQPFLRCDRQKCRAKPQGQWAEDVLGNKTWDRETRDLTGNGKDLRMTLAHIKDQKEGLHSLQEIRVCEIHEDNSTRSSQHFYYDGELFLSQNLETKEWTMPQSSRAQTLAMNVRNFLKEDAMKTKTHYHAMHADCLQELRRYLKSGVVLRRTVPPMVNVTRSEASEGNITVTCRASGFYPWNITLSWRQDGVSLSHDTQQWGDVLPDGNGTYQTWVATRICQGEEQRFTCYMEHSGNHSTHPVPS", "test": "ELISA, 3 µg/ml recombinant protein coated", "protocol": "3 μg/ml of the indicated MICA recombinant proteins were coated overnight in 96-well plates in PBS 1× at 4° C. All subsequent steps were performed at room temperature. After washes with PBS 1×/Tween 0.05%, plates were saturated for an additional 2 hours in PBS 1×/BSA 1%. Two additional washes were performed prior adding the tested anti-MICA mAb in PBS 1×/BSA 1% for 2 hours. Antibodies were washed and a horseradish peroxidase conjugated goat polyclonal anti-mouse IgG (GAM-HRP) in PBS 1×/BSA 1% was added for 1 hour. Final washing steps were performed and TMB substrate was added to reveal the ELISA (5 to 20 min in the dark) and 1M HCl was added to stop the enzymatic reaction. O.D. was measured at 450 nm.\n9C10 binds to MICA extracellular domain recombinant-protein but not MICA extracellular domain α3 recombinant protein. Antibody 16A8, however, bound to both MICA extracellular domain recombinant protein […] MICA extracellular domain α3 recombinant protein. Therefore, it can be concluded from this ELISA experiment that the binding site on MICA of 9C10 antibodies includes the α1 and/or α2 domains while antibody 16A8 binds to MICA within the α3 domain. […] BAMO1 is a commercially available anti-MICA specific for α1α2 domain and BAMO3 is a commercially available anti-MICA specific for α3 domain."}, "[3]": {"molecular_target": "T3, MICA*001 expressed on transfected cells (human)", "T3 construct": "the cells carry the complete allele; also called C1R-MICA*001; C1R-MICA*01", "T3 chain": "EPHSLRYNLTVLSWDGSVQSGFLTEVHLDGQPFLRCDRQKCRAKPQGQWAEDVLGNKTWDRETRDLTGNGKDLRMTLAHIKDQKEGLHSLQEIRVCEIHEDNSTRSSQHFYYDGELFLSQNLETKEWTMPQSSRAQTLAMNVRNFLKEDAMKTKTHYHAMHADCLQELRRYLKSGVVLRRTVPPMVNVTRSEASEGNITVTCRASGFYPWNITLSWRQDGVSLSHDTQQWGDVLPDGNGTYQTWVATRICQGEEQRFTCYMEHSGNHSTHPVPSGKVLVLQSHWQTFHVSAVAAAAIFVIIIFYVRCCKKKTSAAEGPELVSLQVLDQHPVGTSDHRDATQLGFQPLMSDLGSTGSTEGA", "test": "flow cytometry on C1R-MICA*001 cells, 3-parameter logistic fit", "protocol": "as §1, §2, §3"}, "[4]": {"molecular_target": "T4, MICA*007 expressed on C1R transfectant cells (human, UniProt Q29983 24-297, Glycosylated on cells; the letters do not carry this.)", "T4 construct": "also called C1R-MICA*007; C1R-MICA*07", "T4 chain": "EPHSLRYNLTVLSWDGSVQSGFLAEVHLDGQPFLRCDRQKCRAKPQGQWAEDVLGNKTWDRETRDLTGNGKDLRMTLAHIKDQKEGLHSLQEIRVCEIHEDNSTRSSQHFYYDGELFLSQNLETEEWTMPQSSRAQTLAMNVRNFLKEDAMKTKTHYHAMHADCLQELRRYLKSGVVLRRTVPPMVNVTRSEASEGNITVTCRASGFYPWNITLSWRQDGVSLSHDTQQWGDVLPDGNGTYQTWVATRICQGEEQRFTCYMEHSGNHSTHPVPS", "test": "flow cytometry on C1R-MICA*007 cells, 3-parameter logistic fit", "protocol": "as §1, §2, §3"}},
  "data": [
    {"binder": "antibody 9C10 (antibody, V domains shown, Biotinylated when captured in the SPR assays (9C10-Biot); the sites are not given., Murine hybridoma antibody of IgG2b isotype as tested; also called 9C10-Biot) VH: QVQLQQPGAELVRPGTSVNLSCKASGYSFTRYWMNWVKQRPGQGLEWIGMIHPSDSETRLNQKFKDKATLTVDKSSSTAYMQLSSPTSEDSAVYYCGYGNFFYVMDYWGQGTSVTVSS VL: DILLTQSPAILSVSPGERVSFSCRASQSIGTSIHWYQQRTNGSPRLLIKFASESISGIPSRFSGSGSGTDFTLNINSVESEDIADYYCQQSNFWPFTFGSGTKLEVK", "values": [
      {"measurement": "EC50", "setting": "[1]", "result": 0.2, "unit": "µg/mL"},
      {"measurement": "binding result", "setting": "[2]", "result": "binds"},
      {"measurement": "EC50", "setting": "[3]", "result": 3.15, "unit": "µg/mL"},
      {"measurement": "EC50", "setting": "[4]", "result": 7.93, "unit": "µg/mL"}
    ]},
    {"binder": "antibody 16A8 (antibody, V domains shown, Murine hybridoma antibody of IgG2a isotype as tested; also called 16A8-Biot) VH: EVQLVESGGGLVKPGGSLKLSCAASGFTFSRYAMSWVRQTPEKRLEWVATIFSGGSYTYYPDSVKGRFTISRDNANNTLYLQMSSLKAEDTAMYFCARPNWERTFDYWGQGTTLTVSS VL: not shown", "values": [
      {"measurement": "EC50", "setting": "[1]", "result": 0.31, "unit": "µg/mL"},
      {"measurement": "binding result", "setting": "[2]", "result": "binds"},
      {"measurement": "EC50", "setting": "[3]", "result": 1.18, "unit": "µg/mL"},
      {"measurement": "EC50", "setting": "[4]", "result": 0.74, "unit": "µg/mL"}
    ]}
  ]
}
